{"source": "paper PMC7349057", "proteins": {"B1": {"name": "mouse EMCN (mEMCN, endomucin): N-Mut (protein)", "parent chain": "MRLLQATVLFFLLSNSLCHSEDGKDVQNDSIPTPAETSTTKASVTIPGIVSVTNPNKPADGTPPEGTTKSDVSQTSLVTTINSLTTPKHEVGTTTEGPLRNESSTMKITVPNTPTSNANSTLPGSQNKTENQSSIRTTEISVTTQLLDALPKITATSSASLTTAHTMSLLQDTEDRKIATTPSTTPSYSSIILPVVIALVVITLLVFTLVGLYRICWKRDPGTPENGNDQPQSDKESVKLLTVKTISHESGEHSAQGKTKN"}}, "key": {"[1]": {"assay": "cell surface biotinylation, VEGFR2 western blot, hEMCN knockdown HRECs", "settings": "glycan lost; control: ∆21-121 EMCN"}, "[2]": {"assay": "immunocytochemistry of internalised VEGFR2, BSA vs VEGF", "settings": "glycan lost; control: ∆21-121 EMCN"}}, "data": [{"protein": "B1", "values": [{"measurement": "other: rescue of VEGF-induced VEGFR2 internalisation", "setting": "[1]", "result": "abolishes"}, {"measurement": "other: rescue of VEGF-induced VEGFR2 internalisation, other: VEGFR2-positive pixels per cell", "setting": "[2]", "result": "abolishes"}]}]}
